Source: paper PMC9076029
Where two headings read alike, the source gives them in different places.

How the values were obtained:
[1] = target: SARS-CoV-2 spike protein receptor binding domain, wild-type (SARS-CoV-2) (UniProt P0DTC2); test: ITC
[2] = target: SARS-CoV-2 spike protein receptor binding domain, wild-type (SARS-CoV-2) (UniProt P0DTC2); test: ITC; remark: listed apart in the source

Row | Substance | Kd [1] | Kd [2]
1 | CC12.1 single chain variable fragment (scFv) | 28 nM | 23.9 nM
2 | P2B-2F6 single chain variable fragment (scFv) | – | 81.4 nM
